{"source": "paper PMC8069351", "about": "“Characterization of Two Unique Cold-Active Lipases Derived from a Novel Deep-Sea Cold Seep Bacterium” (Microorganisms, 2021)", "proteins": {"B1": {"name": "Lipase 2 (Pseudomonas sp. gcc21) (protein)", "chain": "MNSPLLKLSTLTLGLVFAAGAYAFNPGNPGGPSNPGGDQPVESGFPSVGNFEASGSFATTNASEGPSCTIYRPRTLGENDLKHPIILWGNGTGTSPSGYSALLNHWASHGFVVAAANTTNAGSGAEMLACLDYLAEQNGRGSGTYAGKLNLDAVGSSGHSQGGGGSIMAGQDSRITATAPFQPYTLGLGHRRASQSNQNGPMFLMTGSADTLASSEANGRPVFNNANVPVFWGELQGASHFVPAFNGGGYRGPSTAWYRYHLMGDQNAESTFYGADCKLCTSSEWKVQKKGIQ"}}, "substrate": "CCCCCCCCCCCCCCCC(=O)Oc1ccc([N+](=O)[O-])cc1", "test": "purified protein", "assay_type": "biochemical, Pseudomonas sp. gcc21", "details": "50 mM Tris-HCl pH 8.0, 4 °C, substrate 0.2-1.2 mM, text b44 swaps the two lipases' Km"}
{"protein": "B1", "values": [{"measurement": "Km", "result": 20, "unit": "µM"}, {"measurement": "kcat", "result": 2.7, "unit": "s⁻¹"}, {"measurement": "kcat/Km", "result": 140000, "unit": "M⁻¹ s⁻¹"}]}
